The text below walks through data of CN115960237A.

The target of this assay is OXA-48酶抗原 (recombinant OXA-48 enzyme antigen) (UniProt Q6XEC0). The assay can be described thus: indirect ELISA, OXA-48 antigen coated at 100 ng per well, goat anti-rabbit IgG-HRP, OD450.
UniProt Q6XEC0, sequence (Q6XEC0 23-265 limits assumed): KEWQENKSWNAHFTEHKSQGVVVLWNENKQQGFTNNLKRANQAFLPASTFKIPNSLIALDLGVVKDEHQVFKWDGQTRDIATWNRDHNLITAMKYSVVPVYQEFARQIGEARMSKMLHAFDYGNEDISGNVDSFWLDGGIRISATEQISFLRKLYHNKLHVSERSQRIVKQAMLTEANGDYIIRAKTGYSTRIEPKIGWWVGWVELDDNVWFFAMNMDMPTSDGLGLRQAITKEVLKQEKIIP

B1: 第二单克隆抗体 (second anti-OXA-48 enzyme monoclonal antibody) (antibody, V domains shown)
VH: EVQLVESGGGLVKPGGSLRLSCAASGFTFSGYWMHWVRQAPEKGLVWVAYINSDGSSTNYADSVKGRFTISRDNAKNTLFLQMNSLRAEDTAMYYCARGGGYSYGPFDYWGQGTSVTVSS
VL: QSVLTQPSSASTSPGSSVKLSCTGTSSDIGNNDYVSWYQQYMGRPPTNIIYDVSRRPSGVSDRFSGSIDRSSNTAFLTVNNVQADDEADYYCSSYAGSSNLVFGGGTKLTV
For B1, the OD值 (OD450 at 1:1280000 dilution) was over 0.5 OD and the 效价 (ELISA titer) (dilution factor (1:x)) is 1.28e+06.

B2: 第一单克隆抗体 (first anti-OXA-48 enzyme monoclonal antibody) (antibody, V domains shown)
VH: EVKLVESGGGLVQPGRSLRLSCATSGFTFADYSMTWVRQPPGKGLEWVGLIKRNAYGGTTEYAASVRGRFTISRDNSQSIAYLQMNTLRTEDTPAYYCLRGYSGYDWEGLDAFDVWGQGTMVTVSS
VL: DIVMSQSPSSLAVSLGEKVTINCKSGQSVLFTSNNKNYLAWYQQKPGQPPKLLISWASTRESGVPDRFSGSGSGTDFTLAISSVQAEDVAVYYCQQYYSPGPFTFGQGTKVEIK
In the case of B2, the OD值 (OD450 at 1:1280000 dilution) turned out to be 0.5 OD and the 效价 (ELISA titer) (dilution factor (1:x)) was 1.28e+06.
